According to patent publication US12605539B2, “Methods and systems for delivering drugs through skin of a body” (PASSPORT TECHNOLOGIES, INC., priority 2019, dated 2026):
Values belong to the molecule of their own block, whether it stands above or below them.

Key:
[1] = Blood concentration of long-acting peptide (Semaglutide) after microporation patch, Sub Q or oral administration; format: in vivo, hairless Guinea pigs
Source text: Table 1 below provides data of three groups of microporation values used to create pathways in the skin in hairless Guinea pigs before applying the patch 102 containing a long-acting peptide once weekly, for example Semaglutide. Table 2 below provides data of six (6) groups of drug administration: three (3) groups for the patch 102, one (1) group for oral administration of the long-acting peptide, and two (2) groups for injected administration of the long-acting peptide.
Groups 1-3 in Tables 1 and 2 correspond to combinations of patches 102 and the microporation parameters for a particular administration. For example, the group 1 microporation parameters of Table 1 apply in conjunction with the administration of the patch 102 according to the parameters in Group 1 of Table 2. Accordingly, the patch 102 of group 1 has the nonwoven matrix, water holding material thickness of 38 μm, water holding material weight of 12 g/m^2, and WHC of […]. The patch 102 of group 1 includes a drug of 1 mg and a total solid weight of 3.25 mg with an area of 0.5 cm^2. This patch 102 is applied to an area of the skin having 200 pathways created according to the group 1 microporation parameters, where the energy applied to the microporation device is 5.2 mJ/filament, the filaments 200 are made from stainless steel and have a treated area of 10% per square centimeter of skin, where the filaments 200 treat an area of 0.5 cm^2. Similarly, group 2 of the patch 102 parameters applies to group 2 of the microporation parameters and group 3 of the patch 102 parameters applies to group 3 of the microporation parameters.
The graph 1000 includes the concentration of the long-acting peptide in nanograms/milliliter (ng/mL) along the y-axis and time in hours (hr) along the x-axis. […] The line 1002 represents the group 1 microporation parameters and the group 1 patch 102 parameters. The line 1004 represents the group 2 microporation parameters and the group 2 patch 102 parameters. The line 1006 represents the group 3 microporation parameters and the group 3 patch 102 parameters. Each of the three lines 1002, 1004, and 1006 follow the same general trend. For each of the groups 1-3 of parameters, the concentrations of the long-acting peptide generally increase to a maximum concentration relatively quickly before gradually lessening, finally reaching a concentration of 0.
The graph 1020 includes the concentration of the long-acting peptide in nanograms/milliliter (ng/mL) along the y-axis and time in hours (hr) along the x-axis. […] The line 1022 represents the group 4 injected drug. The line 1024 represents the group 5 injected drug. The line 1026 represents the group 6 […] drug. Each of the lines 1022 and 1024 follow the same general trend, rising to a highest level of concentration before gradually falling and approaching a concentration level of 0. […] The parameters of group 5 are shown by line 1024 to have a higher concentration level spike for the duration of the bioavailability of the long-acting polypeptide in the body as compared to the parameters of group 4 shown by line 1022.
The graph 1040 is zoomed out view of the graph 1000, giving a higher level view of the relationships of the lines 1002, 1004, and 1006. Similarly, the graph 1060 is a zoomed out view of the graph 1020, showing that the line 1026 (oral consumption of the long-lasting peptide) hovers around a concentration of 10 ng/mL and is not 0, as it appears from the graph 1020.
Based on the graphs 1000, 1020, 1040, and 1060, the area under the curve for each of groups 1-6 is shown below in Table 3: […]

[2] = Blood concentration of long-acting protein (Etanercept), patch matrix comparison (Tables 8-10, FIG. 12); format: in vivo, rats; conditions: for peak concentration: 5.0 mg + sucrose 10 mg, 400 pores, 5.2 mJ/filament
Source text: Table 8 below provides data of two groups (groups 1 and 2) of microporation values for use with a patch 102 containing a long-acting protein, for example Etanercept. Table 10 below provides details of the components of the patch or drug formulation administered according to the groups 1 and 2. As shown, both groups have the same drug formulation of the long-acting protein and sucrose in the same quantities.
The graph 1200 includes the concentration of the long-acting protein in nanograms/milliliter (ng/mL) along the y-axis and time in hours (hr) along the x-axis. […] The line 1202 represents the group 1 patch 102 with microporation parameter according to Table 8 and patch 102 parameters according to Table 9. The line 1204 represents the group 2 patch 102 with microporation parameter according to Table 8 and patch 102 parameters according to Table 9. The two lines 1202 and 1204 follow different trends. The line 1202 spikes quickly to a peak of above 800 ng/mL and then remains generally between 500 and 700 ng/mL until at least about 70 hours. […] This highlights the effects that the patch 102 parameters can have on the administration of the drug formulation.

[3] = Blood concentration of long-acting protein (Etanercept) after patch with or without microporation or Sub Q; format: in vivo, rats
Source text: Table 4 below provides data of one group (group 1) of a patch 102 containing a long-acting protein, for example Etanercept, applied without any microporation, three groups (groups 2-4) of microporation values for use with patches 102, and one group (group 5) of injected administration of the long-acting protein. Table 6 below provides details of the components of the patch or drug formulation administered according to the groups 1-5.
The graph 1100 includes the concentration of the long-acting protein in nanograms/milliliter (ng/mL) along the y-axis and time in hours (hr) along the x-axis. […] The line 1102 represents the group 1 patch 102 with no microporation. The line 1104 represents the group 2 microporation parameters and the group 2 patch 102 parameters. The line 1106 represents the group 3 microporation parameters and the group 3 patch 102 parameters. The line 1108 represents the group 4 microporation parameters and the group 4 patch 102 parameters. The line 1110 represents the injected long-acting protein. Each of the three lines 1104, 1106, and 1108 follow the same general trend. For each of the groups 2-4 of parameters, the concentrations of the long-acting protein generally increase to a maximum concentration relatively quickly before gradually lessening, finally reaching a concentration of 0. The parameters of groups 3 and 4 are shown by line 1106 and 1108 to have the highest concentration level spike while the group 4 parameters result in the higher long term concentration. The parameters of group 2 are shown by line 1104 to have a generally lower concentration levels throughout as compared to the groups 3 and 4 parameters. The group 1 and group 5 administrations are lower than all of the group 2-4 administrations. Thus, for the long-acting protein, the patch administration at skin locations treated with microporation result in better bioavailabilities than even the injected administration of the drug, as detailed in Table 7 below. The graphs 1100 and 1120 also show what effects the additional components in the drug formulation (for example, sucrose, urea, and so forth) may have on the bioavailability and blood concentrations of the long-acting protein in rats.
Based on the graphs 1100 and 1120, the area under the curve for each of groups 1-5 is shown above in Table 7. […] The administrations using the patches 102 with the different microporation parameters are shown to result in the greatest concentration levels of the drug available for the longest durations.

[4] = group 1: patch 5.0 mg + sucrose 5 mg, without microporation
[5] = group 2: patch 5.0 mg + sucrose 5 mg, 400 pores, 5.2 mJ/filament
[6] = group 3: patch 5.0 mg + sucrose 5 mg + urea 5 mg, 400 pores, 5.2 mJ/filament
[7] = group 4: patch 5.0 mg + sucrose 5 mg + disodium citrate 5 mg, 400 pores, 5.2 mJ/filament

BA ([1]; group 1: patch 1 mg (2 mg/cm^2), 0.5 cm^2, 200 pores, 5.2 mJ/filament): 63.6%
BA ([1]; group 2: patch 2 mg (2 mg/cm^2), 1.0 cm^2, 400 pores, 5.2 mJ/filament): 47.0%
BA ([1]; group 3: patch 4 mg (2 mg/cm^2), 2.0 cm^2, 800 pores, 5.2 mJ/filament): 31.8%
BA ([1]; group 4: Sub Q 0.5 mg): 81.8%
BA ([1]; group 5: Sub Q 1.0 mg): 100.0%
BA ([1]; group 6: Oral 2.0 mg): 0.0%
Molecule: CC[C@H](C)[C@H](NC(=O)[C@H](Cc1ccccc1)NC(=O)[C@H](CCC(=O)O)NC(=O)[C@H](CCCCNC(=O)COCCOCCNC(=O)COCCOCCNC(=O)CC[C@H](NC(=O)CCCCCCCCCCCCCCCCC(=O)O)C(=O)O)NC(=O)[C@H](C)NC(=O)[C@H](C)NC(=O)[C@H](CCC(N)=O)NC(=O)CNC(=O)[C@H](CCC(=O)O)NC(=O)[C@H](CC(C)C)NC(=O)[C@H](Cc1ccc(O)cc1)NC(=O)[C@H](CO)NC(=O)[C@H](CO)NC(=O)[C@@H](NC(=O)[C@H](CC(=O)O)NC(=O)[C@H](CO)NC(=O)[C@@H](NC(=O)[C@H](Cc1ccccc1)NC(=O)[C@@H](NC(=O)CNC(=O)[C@H](CCC(=O)O)NC(=O)C(C)(C)NC(=O)[C@@H](N)Cc1cnc[nH]1)[C@@H](C)O)[C@@H](C)O)C(C)C)C(=O)N[C@@H](C)C(=O)N[C@@H](Cc1c[nH]c2ccccc12)C(=O)N[C@@H](CC(C)C)C(=O)N[C@H](C(=O)N[C@@H](CCCNC(=N)N)C(=O)NCC(=O)N[C@@H](CCCNC(=N)N)C(=O)NCC(=O)O)C(C)C [Semaglutide]

Molecule: Etanercept
peak concentration ([2]; group 1: matrix 38 μm, 12 g/m^2, WHC 4 mg/cm^2): above 800 ng/mL
concentration at about 70 hours ([2]; group 2 (WHC 30 mg/cm^2)): below 100 ng/mL
time of peak concentration ([2]; group 2 (WHC 30 mg/cm^2)): about 32 hours
peak concentration ([2]; group 2: matrix 336 μm, 50 g/m^2, WHC 30 mg/cm^2): about 275 ng/mL
AUC [3, 4]: 0.172 µg·h/mL
BA [3, 4]: 0.0%
Cmax [3, 4]: 9.6 ng/mL
AUC [3, 5]: 208.5929 µg·h/mL
BA [3, 5]: 94.3%
Cmax [3, 5]: 5189.0 ng/mL
AUC [3, 6]: 604.0884 µg·h/mL
BA [3, 6]: 99.4%
Cmax [3, 6]: 16578.6 ng/mL
AUC [3, 7]: 712.8251 µg·h/mL
BA [3, 7]: 117.2%
Cmax [3, 7]: 16982.4 ng/mL
AUC ([3]; group 5: Sub Q 1.0 mg): 121.5723 µg·h/mL
BA ([3]; group 5: Sub Q 1.0 mg): 100.0%
Cmax ([3]; group 5: Sub Q 1.0 mg): 1298.7 ng/mL
